Values quoted from earlier work as cited in patent US20230129812A1, “COMPOSITIONS AND METHODS FOR TREATING PULMONARY HYPERTENSION” (Acceleron Pharma Inc., priority 2020, published 2023).
Changes are numbered by the printed parent chain. Names may count otherwise.

T1: GDF11 (Homo sapiens, UniProt O95390)
T1 sequence (O95390 299-407): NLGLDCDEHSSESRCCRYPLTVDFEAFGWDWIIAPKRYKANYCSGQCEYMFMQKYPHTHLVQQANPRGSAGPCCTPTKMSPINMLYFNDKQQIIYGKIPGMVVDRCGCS

T2: ActA (Homo sapiens, UniProt P08476)
T2 sequence (P08476 311-426): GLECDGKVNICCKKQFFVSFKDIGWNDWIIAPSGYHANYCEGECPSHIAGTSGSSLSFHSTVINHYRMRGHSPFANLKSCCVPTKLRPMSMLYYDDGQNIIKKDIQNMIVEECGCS

B1: +15tail: soluble ActRIIB-Fc variant with the 15 amino acid tail, as reported in WO2006/012627 (protein)
chain: SGRGEAETRECIYYNANWELERTNQSGLERCEGEQDKRLHCYASWANSSGTIELVKKGCWLDDFNCYDRQECVATEENPQVYFCCCEGNFCNERFTHLPEAGGPEVTYEPPPTAPT
modifications: left off: a dimerising Fc or GST
B2: K74Y: soluble ActRIIB-Fc variant, as reported in WO2006/012627 (protein)
chain: SGRGEAETRECIYYNANWELERTNQSGLERCEGEQDKRLHCYASWANSSGTIELVYKGCWLDDFNCYDRQECVATEENPQVYFCCCEGNFCNERFTHLPEA
modifications: left off: a dimerising Fc or GST
B3: R56A: soluble ActRIIB-Fc variant, as reported in WO2006/012627 (protein)
chain: B2 chain with R38A, Y56K
modifications: left off: a dimerising Fc or GST
B4: K74F: soluble ActRIIB-Fc variant, as reported in WO2006/012627 (protein)
chain: B2 chain with Y56F
modifications: left off: a dimerising Fc or GST
B5: D80F: soluble ActRIIB-Fc variant, as reported in WO2006/012627 (protein)
chain: B2 chain with Y56K, D62F
modifications: left off: a dimerising Fc or GST
B6: D80K: soluble ActRIIB-Fc variant, as reported in WO2006/012627 (protein)
chain: B2 chain with Y56K, D62K
modifications: left off: a dimerising Fc or GST
B7: K74I: soluble ActRIIB-Fc variant, as reported in WO2006/012627 (protein)
chain: B2 chain with Y56I
modifications: left off: a dimerising Fc or GST
B8: D80R: soluble ActRIIB-Fc variant, as reported in WO2006/012627 (protein)
chain: B2 chain with Y56K, D62R
modifications: left off: a dimerising Fc or GST
B9: D80I: soluble ActRIIB-Fc variant, as reported in WO2006/012627 (protein)
chain: B2 chain with Y56K, D62I
modifications: left off: a dimerising Fc or GST
B10: L79A: soluble ActRIIB-Fc variant, as reported in WO2006/012627 (protein)
chain: B2 chain with Y56K, L61A
modifications: left off: a dimerising Fc or GST
B11: WT (64R): soluble ActRIIB-Fc, wild type with 64R, as reported in WO2006/012627 (protein)
chain: B2 chain with A46R, Y56K
modifications: left off: a dimerising Fc or GST
B12: R40A: soluble ActRIIB-Fc variant, as reported in WO2006/012627 (protein)
chain: B2 chain with R22A, Y56K
modifications: left off: a dimerising Fc or GST
B13: W78A: soluble ActRIIB-Fc variant, as reported in WO2006/012627 (protein)
chain: B2 chain with Y56K, W60A
modifications: left off: a dimerising Fc or GST
B14: D54A: soluble ActRIIB-Fc variant, as reported in WO2006/012627 (protein)
chain: B2 chain with D36A, Y56K
modifications: left off: a dimerising Fc or GST
B15: E37A: soluble ActRIIB-Fc variant, as reported in WO2006/012627 (protein)
chain: B2 chain with E19A, Y56K
modifications: left off: a dimerising Fc or GST
B16: D80G: soluble ActRIIB-Fc variant, as reported in WO2006/012627 (protein)
chain: B2 chain with Y56K, D62G
modifications: left off: a dimerising Fc or GST
B17: D80A: soluble ActRIIB-Fc variant, as reported in WO2006/012627 (protein)
chain: B2 chain with Y56K, D62A
modifications: left off: a dimerising Fc or GST
B18: K55A: soluble ActRIIB-Fc variant, as reported in WO2006/012627 (protein)
chain: B2 chain with K37A, Y56K
modifications: left off: a dimerising Fc or GST
B19: K74A: soluble ActRIIB-Fc variant, as reported in WO2006/012627 (protein)
chain: B2 chain with Y56A
modifications: left off: a dimerising Fc or GST

molecular target: T1, GDF11; set-up: key: *: No observed binding; −−: <⅕ WT binding; −: ~½ WT binding; +: WT; ++: <2x increased binding; +++: ~5x increased binding; ++++: ~10x increased binding; +++++: ~40x increased binding; settings: Table 11, reproduced from WO2006/012627; cited from earlier work

GDF11 binding relative to WT, (+++) (~5x increased binding):
B11

GDF11 binding relative to WT, (++++) (~10x increased binding):
B1

GDF11 binding relative to WT, *:
B3, B5, B6, B8, B10, B13, B14, B15, B16, B17, B18

GDF11 binding relative to WT, − (~½ WT binding):
B12

GDF11 binding relative to WT, −− (<⅕ WT binding):
B2, B4, B7, B9

molecular target: T2, ActA; set-up: key to ActA binding relative to WT: *: No observed binding; −−: <⅕ WT binding; −: ~½ WT binding; +: WT; ++: <2x increased binding; +++: ~5x increased binding; ++++: ~10x increased binding; +++++: ~40x increased binding; settings: Table 11, reproduced from WO2006/012627; cited from earlier work

ActA binding relative to WT, − (~½ WT binding):
B12, B14

ActA binding relative to WT, (+++) (~5x increased binding):
B1

ActA binding relative to WT, ++ (<2x increased binding):
B18

ActA binding relative to WT, *:
B2, B3, B4, B5, B6, B7, B8, B9, B13, B15, B16, B17

ActA binding relative to WT, +:
B10

ActA binding relative to WT, +++++ (~40x increased binding):
B19

same assay, conditions: WO2006/012627; cited from earlier work

Ratio of activin A (ActA) binding to GDF11 binding, relative to the wild-type K74 molecule, decrease:
B2, B4, B7, B9
